The record followed here is patent US20160046672A1, “STAPLING eIF4E INTERACTING PEPTIDES” (AGENCY FOR SCIENCE, TECHNOLOGY AND RESEARCH, priority 2013, published 2016).

Positions of bridges follow the written chain, without caps; N, C: chain ends. Non-standard residues stand in square brackets, D forms with d. R5 = C=CCCC[C@@](C)(N)C(=O)O; S5 = C=CCCC[C@](C)(N)C(=O)O; Abu = CC[C@H](N)C(=O)O; Aib = CC(C)(N)C(=O)O

Data set [1] can be described thus: circular dichroism. To be noted: 5 mM sodium phosphate; pH 7.0; ns °C; 0.5 or 2 mg/mL.
Data set [2] deals with T1, eIF4E (Homo sapiens, UniProt P06730).
T1 construct: made in house
As to the kind of experiment: Competitive fluorescence anisotropy (FP) assay against FAM labeled tracer peptide. It counts as binding. The protocol:
Apparent Kd values were determined for a variety of molecules via competitive anisotropy anisotropy experiments. Titrations were carried out with the concentrations eIF4E held constant at 200 nM, respectively and the labeled peptide at 50 nM. […] Apparent Kd values were determined by fitting the experimental data to the equations shown below:
[L]st and [L]t denote labeled ligand and total unlabeled ligand input concentrations, respectively. Kd2 is the dissociation constant of the interaction between the unlabelled ligand and the protein. […] Readings were carried out with an Envision Multilabel Reader (PerkinElmer). […] All titrations were carried out in triplicate. Curve-fitting was carried out using Prism 4.0 (GraphPad).

Data set [3] has as its target T1, eIF4E. Nature of the data set: eIF4E affinity (SPR/FP, method not named). The class given is binding. Here is the method: Apparent Kd values were determined for a variety of molecules via competitive anisotropy anisotropy experiments. Titrations were carried out with the concentrations eIF4E held constant at 200 nM, respectively and the labeled peptide at 50 nM. The competing molecules were then titrated against complex of the FAM labeled peptide and protein. Apparent Kd values were determined by fitting the experimental data to the equations shown below: […]
Six buffer blanks were first injected to equilibrate the instrument fully and then a solvent correction curve was performed followed by a further two blank injections. […] Using a flow rate of 50 μl/min, compounds were injected for 60 s and dissociation was monitored for 180 s. The data collection rate was 10 Hz. Kds were determined using the BiaEvaluation software (Biacore) and calculated kinetically from the dissociation and association phase data for each of the peptides. The kinetic data were fitted to 1:1 binding models. Each individual peptide Kd was determined from three separate titrations. Within each titration at least two concentration points were duplicated to ensure stability and robustness of the chip surface.

A short description of data set [4]: Circular dichroism, percent α-helicity in solution. It counts as physicochemical. The settings on record: CD, 5 mM sodium phosphate buffer pH 7.0. The protocol: CD was measured on a JASCO J-810 spectropolarimeter, and spectra were either recorded with a quartz cuvette (Helmer) with a pathlength of 0.01 cm or 0.1 cm in 5 mM sodium phosphate buffer (pH 7.0). FUV CD spectra were recorded from 260 nm to 200 nm at a peptide concentration of either 2 mg/ml or 0.5 mg/ml, respectively. The CD signal was converted into mean residue ellipticity in units of degree·cm^2·dmol^−1·residue^−1. CD spectra were recorded at a data pitch of 0.2 nm at 50 nm min^−1, a response time of 2 s, and a bandwidth of […]. Once converted to mean residue ellipticity, percent α-helicity can be calculated with equation (1) and (2): […]

The target of data set [5] is T2, human eukaryotic translation initiation factor 4E (eIF4E), full-length (human, UniProt P06730 2-217).
T2 construct: mature; For SPR it was amine-coupled to a CM5 chip with m7GTP present in a 2:1 ratio. 'mature' is used here for full length; also called full length eIF4E
As to the kind of experiment: SPR, Biacore T100, eIF4E immobilised on CM5, peptide as analyte, kinetic 1:1 fit; SPR (first value of the SPR/FP cell); weak, about 9 uM. The protocol:
(§1) For stock peptide solutions, the compounds were dissolved in 100% DMSO to a concentration of 10 mM; further dilutions of the peptide stock solutions into DMSO and/or running buffer were performed immediately prior to analysis. Running buffer consisted of 10 mM Hepes pH 7.6, 0.15M NaCl, 1 mM DTT and 0.1% Tween20. Stock/DMSO diluted peptide solutions were diluted into 1.03× running buffer to make a peptide solution with 3% DMSO final concentration. […] Surface Plasmon resonance experiments were performed on a Biacore T100 machine.
(§2) eIF4E was immobilized on a CM5 sensor chip. The CM5 chip was conditioned with a 6 s injection of 100 mM HCL, followed by a 6 s injection of 0.1% SDS and completed with a 6 s injection of 50 mM NaOH at a flow rate of 100 μl/min. […]
(§3) Six buffer blanks were first injected to equilibrate the instrument fully and then a solvent correction curve was performed followed by a further two blank injections. […] Using a flow rate of 50 μl/min, compounds were injected for 60 s and dissociation was monitored for 180 s. […] Kds were determined using the BiaEvaluation software (Biacore) and calculated kinetically from the dissociation and association phase data for each of the peptides. […] Each individual peptide Kd was determined from three separate titrations.

Data set [6] concerns the target T2, human eukaryotic translation initiation …. Nature of the data set: SPR, Biacore T100, eIF4E immobilised on CM5, peptide as analyte, kinetic 1:1 fit. Here is the method: as §1
eIF4E was immobilized on a CM5 sensor chip. The CM5 chip was conditioned with a 6 s injection of 100 mM HCL, followed by a 6 s injection of 0.1% SDS and completed with a 6 s injection of 50 mM NaOH at a flow rate of 100 μl/min. […] Purified eIF4E was diluted with 10 mM sodium acetate buffer (pH 5.0) to a final concentration of 0.5 μM with m⁷ GTP present in a 2:1 ratio in order to stabilize eIF4E. The amount of eIF4E immobilized on the activated surface was controlled by altering the contact time of the protein solution and was approximately 1000 RU. After the immobilization of the protein, a 7-min injection (at 10 μl min⁻¹) of 1 M ethanolamine (pH 8.5) was used to quench excess active succinimide ester groups.
Six buffer blanks were first injected to equilibrate the instrument fully and then a solvent correction curve was performed followed by a further two blank injections. […] Using a flow rate of 50 μl/min, compounds were injected for 60 s and dissociation was monitored for 180 s. The data collection rate was 10 Hz. Kds were determined using the BiaEvaluation software (Biacore) and calculated kinetically from the dissociation and association phase data for each of the peptides. The kinetic data were fitted to 1:1 binding models. Each individual peptide Kd was determined from three separate titrations.

For data set [7] the target is unchanged. As to the kind of experiment: competitive fluorescence anisotropy (FP), displacement of FAM tracer from eIF4E, apparent Kd. The protocol:
Apparent Kd values were determined for a variety of molecules via competitive anisotropy anisotropy experiments. Titrations were carried out with the concentrations eIF4E held constant at 200 nM, respectively and the labeled peptide at 50 nM. […] Apparent Kd values were determined by fitting the experimental data to the equations shown below: […]

The target is the same in data set [8]. Nature of the data set: Kd ratio from Table 2 (SPR/FP; which assay is not said).
Data set [9] has the same target. As to the kind of experiment: Kd ratio from Table 2 (SPR/FP; which assay is not said; the reference is the linear template eIF4G^D5S).
Data set [10] has the same target. Nature of the data set: SPR, Biacore T100, eIF4E immobilised on CM5, peptide as analyte, kinetic 1:1 fit; SPR (first value of the SPR/FP cell); weak, about 12 uM. Here is the method: as §1, §2, §3

T2 sequence (P06730 2-217): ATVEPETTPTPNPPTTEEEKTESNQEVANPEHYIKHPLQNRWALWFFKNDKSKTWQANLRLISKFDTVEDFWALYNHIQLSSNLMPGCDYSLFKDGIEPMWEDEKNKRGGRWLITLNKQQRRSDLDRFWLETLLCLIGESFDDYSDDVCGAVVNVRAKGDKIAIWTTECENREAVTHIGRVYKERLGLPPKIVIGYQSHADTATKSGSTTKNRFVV
T1 sequence (P06730 whole entry): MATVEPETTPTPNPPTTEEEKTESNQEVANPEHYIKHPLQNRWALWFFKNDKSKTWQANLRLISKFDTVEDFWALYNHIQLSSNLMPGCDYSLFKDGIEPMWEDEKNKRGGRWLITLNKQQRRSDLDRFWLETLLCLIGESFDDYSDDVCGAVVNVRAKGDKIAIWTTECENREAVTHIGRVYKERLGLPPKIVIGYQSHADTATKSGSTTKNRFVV

Turning to `CC(=O)N[C@@H](CCCCN)C(=O)N[C@@H](CCCCN)C(=O)N[C@@H](CCCNC(=N)N)C(=O)N[C@@H](Cc1ccc(O)cc1)C(=O)N[C@@H](CO)C(=O)N[C@@H](CCCNC(=N)N)C(=O)N[C@@H](CCC(=O)O)C(=O)NC(C)(C)C(=O)N[C@@H](CC(C)C)C(=O)N[C@@H](CC(C)C)C(=O)NCC(=O)NC(C)(C)C(N)=O` [TIP-02, KKRYSREXLLGX], the helicity in data set [1] is 0%. Further, the “displacement of the FAM labeled peptide in the competition assay” value in [2] is given as “failed to displace the FAM labeled peptide”. Further, the “affinity / binding to eIF4E (in words)” value in [3] was “greatly reduced affinity for eIF4E”. Moreover, the “Helicity (%)” value in data set [4] was 0/ %.

B1: TIP-02 (peptide)
peptide: Ac-KKRYSRE[Aib]LLG[Aib]-NH2
SMILES: CC(=O)N[C@@H](CCCCN)C(=O)N[C@@H](CCCCN)C(=O)N[C@@H](CCCNC(=N)N)C(=O)N[C@@H](Cc1ccc(O)cc1)C(=O)N[C@@H](CO)C(=O)N[C@@H](CCCNC(=N)N)C(=O)N[C@@H](CCC(=O)O)C(=O)NC(C)(C)C(=O)N[C@@H](CC(C)C)C(=O)N[C@@H](CC(C)C)C(=O)NCC(=O)NC(C)(C)C(N)=O
notes: Printed KKRYSREXLLGX, X = AIB; also called AIB derivative of sTIP-02
In [5], B1 showed a Kd of 9190 nM.

B2: TIP-04 (peptide)
peptide: Ac-KKRYSR[Aib]QLL[Aib]L-NH2
notes: Printed KKRYSRXQLLXL, X = AIB; also called AIB derivative of sTIP-04
For the molecule B2, the Kd was determined as 22 nM in data set [6] and 60 nM in [7].

B3: sTIP-01 (peptide)
peptide: Ac-KKRYSR[S5]FLL[S5]F-NH2
modifications: staple 7-11
SMILES: CC(=O)N[C@@H](CCCCN)C(=O)N[C@@H](CCCCN)C(=O)N[C@@H](CCCNC(=N)N)C(=O)N[C@@H](Cc1ccc(O)cc1)C(=O)N[C@@H](CO)C(=O)N[C@@H](CCCNC(=N)N)C(=O)N[C@@]1(C)CCCC=CCCC[C@@](C)(C(=O)N[C@@H](Cc2ccccc2)C(N)=O)NC(=O)[C@H](CC(C)C)NC(=O)[C@H](CC(C)C)NC(=O)[C@H](Cc2ccccc2)NC1=O
notes: Printed KKRYSR*FLL*F, * = staple position
As for B3, the “fold increase in Kd over eIF4G^D5S” value in [8] was approximately 4.5 fold. For the same molecule, in data set [7], the Kd came to 558 nM.

B4: sTIP-03 (peptide)
peptide: Ac-KKRYSRE[R5]LL[S5]F-NH2
modifications: staple 8-11
notes: Printed KKRYSRE*LL*F, * = staple position
As for B4, the “fold improvement in Kd” value in [9] was found to be 17 fold.

B5: eIF4G^D5S (peptide)
peptide: Ac-KKRYSREFLLGF-NH2
notes: also called eIF4G1^D5S; linear template peptide
For B5, the Kd in data set [6] turned out to be 99.9 nM; in data set [7] it was 195 nM.

B6: TIP-01^Tr (peptide)
peptide: Ac-KKRYSR[Aib]FLL[Aib]-NH2
SMILES: CC(=O)N[C@@H](CCCCN)C(=O)N[C@@H](CCCCN)C(=O)N[C@@H](CCCNC(=N)N)C(=O)N[C@@H](Cc1ccc(O)cc1)C(=O)N[C@@H](CO)C(=O)N[C@@H](CCCNC(=N)N)C(=O)NC(C)(C)C(=O)N[C@@H](Cc1ccccc1)C(=O)N[C@@H](CC(C)C)C(=O)N[C@@H](CC(C)C)C(=O)NC(C)(C)C(N)=O
notes: Printed KKRYSRXFLLX; TIP-01 with the C-terminal F12 removed
B6: the Kd in data set [10] was found to be 12100 nM.

B7: TIP-01 (peptide)
peptide: Ac-KKRYSR[Aib]FLL[Aib]F-NH2
SMILES: CC(=O)N[C@@H](CCCCN)C(=O)N[C@@H](CCCCN)C(=O)N[C@@H](CCCNC(=N)N)C(=O)N[C@@H](Cc1ccc(O)cc1)C(=O)N[C@@H](CO)C(=O)N[C@@H](CCCNC(=N)N)C(=O)NC(C)(C)C(=O)N[C@@H](Cc1ccccc1)C(=O)N[C@@H](CC(C)C)C(=O)N[C@@H](CC(C)C)C(=O)NC(C)(C)C(=O)N[C@@H](Cc1ccccc1)C(N)=O
notes: Printed KKRYSRXFLLXF, X = AIB; also called diAIB derivative of sTIP-01
On to B7, for which the “fold decrease in Kd over eIF4G^D5S” value in [8] was approximately 2 fold. In addition, the values for the Kd in [6] and in [7] were 59.7 nM and 52.4 nM, respectively.

B8: TIP-01^F8A (peptide)
peptide: Ac-KKRYSR[Aib]ALL[Aib]F-NH2
SMILES: CC(=O)N[C@@H](CCCCN)C(=O)N[C@@H](CCCCN)C(=O)N[C@@H](CCCNC(=N)N)C(=O)N[C@@H](Cc1ccc(O)cc1)C(=O)N[C@@H](CO)C(=O)N[C@@H](CCCNC(=N)N)C(=O)NC(C)(C)C(=O)N[C@@H](C)C(=O)N[C@@H](CC(C)C)C(=O)N[C@@H](CC(C)C)C(=O)NC(C)(C)C(=O)N[C@@H](Cc1ccccc1)C(N)=O
notes: Printed KKRYSRXALLXF, X = AIB
As to B8, the Kd came to 117 nM in [6] and 156 nM in [7].

B9: TIP-01^F12& (peptide)
peptide: Ac-KKRYSR[Aib]FLL[Aib][Abu]-NH2
SMILES: CC[C@H](NC(=O)C(C)(C)NC(=O)[C@H](CC(C)C)NC(=O)[C@H](CC(C)C)NC(=O)[C@H](Cc1ccccc1)NC(=O)C(C)(C)NC(=O)[C@H](CCCNC(=N)N)NC(=O)[C@H](CO)NC(=O)[C@H](Cc1ccc(O)cc1)NC(=O)[C@H](CCCNC(=N)N)NC(=O)[C@H](CCCCN)NC(=O)[C@H](CCCCN)NC(C)=O)C(N)=O
notes: Printed KKRYSRXFLLX&
As for B9, the figures for the Kd in data set [6] and in [7] were 111 nM and 133 nM, respectively.
